Experimental data published in publication PMC12246617, “Cryo-EM structures reveal the PP2A–B55α and Eya3 interaction that can be disrupted by a peptide inhibitor” (The Journal of Biological Chemistry, 2025).
Changes are numbered by the printed parent chain. In names and notes the source's numbering stands.

Tests used:
B55α (His-B55) = test: Microscale thermophoresis (MST) binding of Eya3 to labeled His-B55; parameters: species or system human
Text: We expressed and purified Eya3 protein from Escherichia coli and the His-B55α subunit from insect cells (Fig. S1). In the remainder of the article, we will use B55 to represent B55α for simplicity and PP2A–B55 to represent the holoenzyme containing the A, B55, and C subunits. We labeled His-B55 with the RED–Tris–NTA dye and carried out microscale thermophoresis (MST) experiments with increasing concentrations of Eya3.
The modeled Eya3 peptide (residues 65–86) interacts mostly with residues on blades 3 and 4 of the β-propeller on the B55 surface (including residues on the β2D and β3A loop, β3B and β3C loop, and β3D and β4A loop) and with residues on the α1 and α2 helix positioned above blade 5, as well as the α2 and β6A loop (Fig. 1F). In particular, residue H79^Eya3 forms pi–pi or pi–cation stacking with H179^B55 and a hydrogen bond with D197^B55 (Fig. 2A). […] Furthermore, Y77^Eya3 forms a hydrogen bond with the main chain carbonyl of L225^B55, and K75^Eya3 forms another hydrogen bond with Y337^B55 (Fig. 2, B and C). […] We expressed and purified Eya3 K75A, Y77A, and H79A mutant proteins from E. coli and carried out MST experiments with fluorescently labeled His-B55. […] While we were working on the structure of PP2A–B55 + Eya3, Padi et al. ([84]) published the cryo-EM structure of PP2A–B55 in complex with an Eya3 peptide (residues 62–108) on bioRxiv.
(§1) FLAG-hB55, FLAG-hEya3, GFP, and GFP-B55i were cloned into the pCAG vector; (GST)-mEya3 was cloned into pGEX-6p1; His-hB56γ1 was cloned into pGEX-4T1; and His-hB55 was cloned in pFASTbac, all using the NEBuilder HiFi DNA Assembly Cloning Kit (New England Biolabs). h and m represent human and mouse proteins, respectively.
GST-mEya3 and mutants were expressed in BL21 cells. Cells were lysed in lysis buffer containing 50 mM Tris (pH 7.5), 250 mM NaCl, 5% glycerol, 1 mM DTT, and protease inhibitor cocktail (PIC; Thermo Scientific). Lysis was done in ice with sonication using 4 × 45 s pulses with 2-min off periods. NaCl was brought up to 0.5 M using 5 M NaCl, and the lysate was centrifuged for 40 min at 18,000g. Supernatant was gravity-flown over glutathione resin twice. Resin was washed with 100 ml of lysis buffer. GST was cleaved with PreScission protease and eluted into lysis buffer. Eluates were pooled and concentrated with Amicon Ultra Centrifugal filters. Concentrated protein was separated on a pre-equilibrated S200 column for size-exclusion chromatography. Peaks were combined, concentrated again, aliquoted, and stored at −80 °C.
His-B55 was expressed in Hi5 cells. […]
His-B55 or His-B56γ1 labeled with […] (NanoTemper) was added to serial dilutions of mEya3 in PBS with 0.05% Tween-20. The samples were then read with a Monolith NT.115^Pico (NanoTemper) according to the manufacturer’s instructions.

B55 = details: Eya3 mutant; cited from earlier work
Text: The modeled Eya3 peptide (residues 65–86) interacts mostly with residues on blades 3 and 4 of the β-propeller on the B55 surface (including residues on the β2D and β3A loop, β3B and β3C loop, and β3D and β4A loop) and with residues on the α1 and α2 helix positioned above blade 5, as well as the α2 and β6A loop (Fig. 1F). In particular, residue H79^Eya3 forms pi–pi or pi–cation stacking with H179^B55 and a hydrogen bond with D197^B55 (Fig. 2A). […] Furthermore, Y77^Eya3 forms a hydrogen bon ...

Myc = details: PP2A–B55α binding mutant; cited from earlier work
Text: (§2) We have shown that Eya proteins directly interact with the PP2A–B55α but not B56 subunit. […] Moreover, all Eya family members can interact with PP2A–B55α through analogous disordered regions in their NTDs ([27], [46]).

[1] = tested on: triple-negative breast cancer (TNBC) tumor; details: PP2A–B55α binding mutant; cited from earlier work
Text: as §2

[2] = tested on: Eya3 and B55 complex (FLAG-hEya3 + His-B55); test: Mass photometry of Eya3 and B55 complex formation and its disruption by B55i; assay type: binding, human; details: no B55i, 20 mM Tris (pH 8), 250 mM NaCl, 1 mM MnCl2, 0.5 mM TCEP, molar ratio 1.5:1, diluted to 100 nM
Text: To evaluate the effect of B55i in cells, we expressed the B55i peptide as a GFP fusion on a plasmid in 66cl4 TNBC cells.
B, MST binding affinity curve showing the interaction between mEya3 and His-B55α. C, B55i disruption of the mEya3 and His-B55α interaction on MST. […] The amount of GFP and GFP-B55i expressed was also quantified using eGFP absorbance at 488 nm and normalized to total protein in the cell lysate. The datasets in all panels represent three independent biological replicates. Error bars represent the standard deviation. Statistical data analysis was done using Fmax tests followed by two-tailed, homoscedastic t tests. ∗p < 0.05, ∗∗p < 0.01, and ∗∗∗∗p < 0.0001. MST, microscale thermophoresis; TNBC, triple-negative breast cancer. […] It is uncertain whether these count as molecular weight results or as excluded spectrum labels.
as §1
hEya3 and PP2A–B55 were combined in 20 mM Tris (pH 8), 250 mM NaCl, 1 mM MnCl2, and 0.5 mM TCEP at a molar ratio of 1.5:1. […] Immediately prior to reading, the solution was diluted to 100 nM. Samples were analyzed on the Refeyn TwoMP (Refeyn).

PP2A–B55 = details: malachite green assay, peptide substrate KRpTIRR; 50 mM Tris [pH 7.5], 50 mM NaCl, 5 mM MgCl2, 0.1 mM EDTA; cited from earlier work
Text: To identify the factor that led to this discrepancy, we first repeated our as ...

Myc pT58 = details: cited from earlier work
Text: The weak inhibition of the PP2A–B55 activity by its B55 binders may have different consequences i ...

B1: H79A: Eya3 H79A mutant protein from E. coli (protein, UniProt Q99504 1-573, looked up, variant H79A)
Protein phosphatase EYA3: MEEEQDLPEQPVKKAKMQESGEQTISQVSNPDVSDQKPETSSLASNLPMSEEIMTCTDYIPRSSNDYTSQMYSAKPYAAILSVPVSETAYPGQTQYQTLQQTQPYAVYPQATQTYGLPPFGALWPGMKPESGLIQTPSPSQHSVLTCTTGLTTSQPSPAHYSYPIQASSTNASLISTSSTIANIPAAAVASISNQDYPTYTILGQNQYQACYPSSSFGVTGQTNSDAESTTLAATTYQSEKPSVMAPAPAAQRLSSGDPSTSPSLSQTTPSKDTDDQSRKNMTSKNRGKRKADATSSQDSELERVFLWDLDETIIIFHSLLTGSYAQKYGKDPTVVIGSGLTMEEMIFEVADTHLFFNDLEECDQVHVEDVASDDNGQDLSNYSFSTDGFSGSGGSGSHGSSVGVQGGVDWMRKLAFRYRKVREIYDKHKSNVGGLLSPQRKEALQRLRAEIEVLTDSWLGTALKSLLLIQSRKNCVNVLITTTQLVPALAKVLLYGLGEIFPIENIYSATKIGKESCFERIVSRFGKKVTYVVIGDGRDEEIAAKQHNMPFWRITNHGDLVSLHQALELDFL
binding between Eya3 and B55 (mutants) (B55α (His-B55); fluorescently labeled His-B55, vs Eya3 WT): significantly reduce the binding between Eya3 and B55
interaction between Eya3 and B55 (B55): dramatically reduce the interaction between Eya3 and B55
Myc stabilization (Myc): impeded Myc stabilization
TNBC tumor metastasis [1]: impeded

B2: Eya3: Eya3 protein purified from Escherichia coli (mEya3) or HEK293 FreeStyle cells (FLAG-hEya3) (protein)
chain: B1 Protein phosphatase EYA3 with A79H
modifications: left off: FLAG, end not stated, kept
Kd (B55α (His-B55); His-B55 labeled with Red–Tris–NTA dye, serial dilutions of Eya3 (mEya3, E. coli), PBS with 0.05% Tween-20, Monolith NT.115 Pico, three independent biological replicates (stated for Fig. 1A)): 1.04 µM
Eya3 and B55 complex formation [2]: Eya3 and B55 form a complex
phosphatase activity of PP2A–B55 (PP2A–B55): increases the phosphatase activity of PP2A–B55
dephosphorylation of pT58 on Myc (Myc pT58): clearly increases the dephosphorylation of pT58 on Myc
